US20220089736A1
Each block holds one binder with its values, some of them ahead of it.

Tests used:
[1] = target: CD28 (Cluster of Differentiation 28) (human) (UniProt P10747); test: flow cytometry, binding to human pan T cells; antibody without Vβ17 arm
[2] = target: CD28 (Cluster of Differentiation 28) (human) (UniProt P10747); test: flow cytometry, binding to H929 cells (carry CD28 and BCMA; binding largely dependent upon CD28 arm)

EC50 [1]: 0.06 µg/mL
EC50 [2]: 0.1 µg/mL
B1: VB28B7 (protein, part only; not given: scFvs, linkers, constant regions, not shown: another chain or arm of the molecule; a dimerising Fc or GST; small tags and cut ends)
VH: QVQLQQPGSELVRPGASVKLSCKASGYTFTSYWMHWVKQRHGQGLEWIGNIYPGSGRTNYDEKFKSKGTLTVDTSSRTAYMHLSSLTSEDSAVYYCTREHYGSNSHPMDYWGQGTSVTVSS
VL: DIQMTQSPASLSASVGETVTITCGASENIYGSLNWYQRKQGKSPQLLIYGATNLADGMSSRFSGSGSGRQFSLKISSLHPDDVATYYCQNLLSTPYTFGGGTKLELK

EC50 [1]: 0.15 µg/mL
EC50 [2]: 0.14 µg/mL
B2: VB28B9 (protein, part only; not given: scFvs, linkers, constant regions, not shown: another chain or arm of the molecule; a dimerising Fc or GST; small tags and cut ends)
VH: QVQLQQWGAGLLKPSETLSLTCAVYGGSFSGYYWNWIRQPPGKGLQWIGEINHSGTTNYNPSLKSRVTISVDTSKNQFSLKLSSLTAADTAVYYCARGEAVALYWGQGTLVTVSS
VL: EIVMTQSPATLSVSPGERATLSCRASQSVNSNLAWYQQKPGQAPRLLIYGASARATGIPARFSGSGSGTEFTLTISSLQSEDFAVYYCQQYYNWPLTFGGGTKVEIK
